The source of these data is patent US9512236B2, “Amino acid sequences directed against GPCRS and polypeptides comprising the same for the treatment of GPCR-related diseases and disorders” (Ablynx N.V., priority 2006, dated 2016).

In one assay the target is T1, hCXCR4/Gαqi5 (Homo sapiens, UniProt P61073).
T1 construct: expressed in transfected cells; host or cells: HEK293T
In words: CXCL12-induced inositol phosphate accumulation in HEK293T cells co-transfected with CXCR4 and Gαqi5. Format: cell-based. Particulars: 30 nM CXCL12. The source says: In an effort to functionally characterize the Nanobodies 238D2 and 238D4, the inventors measured their ability to activate G-protein signaling or to inhibit the CXCL12-induced G-protein signaling in HEK293T cells transiently co-transfected with cDNAs encoding CXCR4 and Gαqi5. This assay is based upon the use of the chimeric Gαqi5-protein that contains of a Gαq backbone with the 5 C-terminal amino acids replaced by those from Gαi. The chimeric G-protein is activated by CXCR4 like a Gαi subunit but transduces signals like Gαq proteins (Coward, P., et al., Chimeric G Proteins Allow a High-Throughput Signaling Assay of […] Receptors, Analytical Biochemistry (1999) 270: 242-248). Thus, the activation of Gαqi5 can be quantified by the measurement of accumulated inositol phosphates.
Methods: On day 1, HEK293T cells were plated out at a density of 2 million cells/dish. On day 2, these cells were transfected with 2.5 μg CXCR4 DNA and 2.5 μg Gαqi5, using the PEI method. Cells were plated out the next day in poly-L-lysine coated 24 well plates (500 μl/well) and labeled after 4-6 hours with 2 μCi/ml 3H-inositol in inositol-free medium. […] After this final incubation, the reaction was stopped by aspiration of stimulation medium and addition of 10 mM formic acid (FIG. 4).

The next assay addresses CB1R. In words: Binding of clones measured on Biacore (Table B-2). As to conditions: read-out: Binding of clones against CB1R. As for the experimental part:
(§1) Binding of 4 clones directed against CB1R and of 4 clones against PTHR was measured on Biacore.

The next assay deals with T2, CXCR4 (Homo sapiens, UniProt P61073).
T2 construct: expressed in transfected cells; host or cells: HEK293T (membranes)
T2 sequence (P61073 whole entry): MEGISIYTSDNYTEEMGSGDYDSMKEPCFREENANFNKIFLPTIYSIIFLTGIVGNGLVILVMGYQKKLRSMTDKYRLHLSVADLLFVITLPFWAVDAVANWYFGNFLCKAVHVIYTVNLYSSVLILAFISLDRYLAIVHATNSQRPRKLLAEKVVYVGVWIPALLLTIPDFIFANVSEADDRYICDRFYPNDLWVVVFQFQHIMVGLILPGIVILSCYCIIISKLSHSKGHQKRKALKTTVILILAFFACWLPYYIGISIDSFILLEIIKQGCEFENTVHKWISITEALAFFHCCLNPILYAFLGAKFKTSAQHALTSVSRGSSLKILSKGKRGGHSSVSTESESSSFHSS
Description: [125I]-CXCL12 competition binding on membranes from HEK293T cells transiently expressing CXCR4 (Table I). The source says: Another example of a therapeutic relevant GPCR is CXCR4, which was previously identified as such in Table C and Table D of US20100062004. This representative GPCR has now been further investigated by the present inventors. Different pools of highly similar clones able to inhibit specific [^125I]-CXCL12 binding were identified in a CXCR4 competition binding assay. Nanobodies representing these different pools were purified and further pharmacologically analyzed as detailed in the Example section of WO09/138519. In particular two representative monovalent Nanobodies 238D2 and 238D4 and different mono- and heterobivalent constructs thereof have been analyzed in depth:
Additionally, the inventors engineered a series of mono-specific bivalent and biparatopic CXCR4 constructs. […] Overall, short peptide linkers were used favoring binding to CXCR4 monomers.
In membrane binding experiments mAb 12G5, which is a known neutralizing CXCR4 antibody, seems only to displace 50% of radiolabeled 125I-CXCL12 (CXCR4 ligand).

For assay [1], the target named is CXCR7 point mutants (Homo sapiens, UniProt P25106, M33Q). In words: Binding to a set of 10 point mutants of CXCR7. Particulars: M33Q point mutant. As for the experimental part: (§2) In a third approach, Nanobodies were tested for their binding to a set of 10 point mutants of CXCR7 (S9A, F14Y, 117L, S18N, W19A, S23G, D25A, V32A, M33Q, N36T), which yielded information on the individual NANOBODY® (VHH) epitopes.
Sequence of CXCR7 point mutants (Homo sapiens, UniProt P25106, M33Q) (P25106 whole entry M33Q): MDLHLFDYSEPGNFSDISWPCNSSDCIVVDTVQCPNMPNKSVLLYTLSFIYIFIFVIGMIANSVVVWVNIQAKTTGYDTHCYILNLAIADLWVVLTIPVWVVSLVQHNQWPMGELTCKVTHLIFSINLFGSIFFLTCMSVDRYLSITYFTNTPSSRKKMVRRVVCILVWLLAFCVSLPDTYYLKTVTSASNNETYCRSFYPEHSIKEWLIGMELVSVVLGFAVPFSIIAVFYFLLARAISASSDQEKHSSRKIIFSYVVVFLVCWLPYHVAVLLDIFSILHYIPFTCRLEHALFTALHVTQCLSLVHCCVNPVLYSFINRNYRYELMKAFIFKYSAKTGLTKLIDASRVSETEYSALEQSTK

For assay [2], the target named is CXCR7 point mutants (Homo sapiens, UniProt P25106, W19A). In words: Binding to a set of 10 point mutants of CXCR7. Particulars: W19A point mutant. On the procedure: as §2
Sequence of CXCR7 point mutants (Homo sapiens, UniProt P25106, W19A) (P25106 whole entry W19A): as the sequence (P25106 whole entry M33Q) above, with W19A, Q33M counted along it
Another assay concerns the target CXCR7 (Homo sapiens, UniProt P25106). In words: Competition with Alexa647-labelled 14G03 in FACS analysis. The format is binding. As to conditions: Alexa647-labelled 14G03, FACS. The source says:
Nanobodies 08A05, 08A10, 07C03, 01C10 and 14G03, Mab 8F11 (Biolegend), Mab 11G8 (R&D) and Mab 9C4 (MBL) were further tested for competition with Alexa647-labelled 14G03 in FACS analysis.
On the technique in general: In flow cytometry, cells or beads pass a laser one at a time.

The next assay has as its target T3, PTHR (Homo sapiens, UniProt Q03431).
T3 sequence (Q03431 27-593): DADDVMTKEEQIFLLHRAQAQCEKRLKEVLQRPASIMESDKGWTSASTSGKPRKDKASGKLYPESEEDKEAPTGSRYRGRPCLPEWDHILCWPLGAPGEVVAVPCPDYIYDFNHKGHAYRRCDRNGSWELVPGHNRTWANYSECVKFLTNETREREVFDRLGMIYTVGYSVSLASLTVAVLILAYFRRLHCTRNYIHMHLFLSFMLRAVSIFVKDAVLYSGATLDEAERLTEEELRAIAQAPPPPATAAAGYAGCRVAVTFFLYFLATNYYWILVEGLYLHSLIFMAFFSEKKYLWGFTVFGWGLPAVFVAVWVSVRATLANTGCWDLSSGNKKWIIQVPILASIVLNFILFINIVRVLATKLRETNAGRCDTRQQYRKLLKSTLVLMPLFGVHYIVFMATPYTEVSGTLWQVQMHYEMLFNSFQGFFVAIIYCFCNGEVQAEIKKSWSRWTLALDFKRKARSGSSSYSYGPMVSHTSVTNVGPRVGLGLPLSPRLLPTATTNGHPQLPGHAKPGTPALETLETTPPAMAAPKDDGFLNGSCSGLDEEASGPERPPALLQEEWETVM
In words: Binding of clones measured on Biacore (Table B-3). On the procedure:
as §1
In general terms: SPR reads the build-up and loss of mass on a sensor chip optically.

One may read the Ki as a dissociation constant, usually derived from enzyme kinetics or from competition with a known ligand.

Sequence of CXCR7 (P25106 whole entry): as the sequence (P25106 whole entry M33Q) above, with Q33M counted along it
T1 sequence (P61073 whole entry): as the sequence (P61073 whole entry) above

In the case of `c1cc(CN2CCCNCCNCCCNCC2)ccc1CN1CCCNCCNCCCNCC1` [AMD3100, plerixafor, reference compound], the “concentration needed to inhibit CXCR4 function” value at hCXCR4/Gαqi5 is 1 µM.

B1: vHH6B7 (protein)
VHH: EVQLVESGGGLVQAGGSLRLSCAASGRTLRNYDMGWFRQAPGKEREFVATIRWSTSETYYADSVKGRFTISSDNAKNTVDLQMNSLTPGDTGVYYCAARSVYSYDYNYWGQGTQVTVSS
B1: the Kd on CB1R was 12 nM.

B2: vHH5G11 (protein)
VHH: EVQLVKSGGGLVQAGGSLRLSCAASGRTLSNYDMGWFRQAPGKEREFVATIRWSTGETYYTDSVKGRFTISKDNTKNTVDLQMNSLTPEDTAVYYCASRSVYSYEYNYWGQGTQVTVSS
For the molecule B2, the Kd at CB1R turned out to be 12 nM.

B3: L13 (protein)
chain: EVQLMESGGGLVQAGGSLRLSCAASGRTFNNYAMGWFRRAPGKEREFVAAITRSGVRSGVSAIYGDSVKDRFTISRDNAKNTLYLQMNSLKPEDTAVYTCAASAIGSGALRRFEYDYSGQGTQVTVSSGGGGSGGGGSGGGGSGGGGSEVQLMESGGGLVQAGGSLRLSCAASGRTFNNYAMGWFRRAPGKEREFVAAITRSGVRSGVSAIYGDSVKDRFTISRDNAKNTLYLQMNSLKPEDTAVYTCAASAIGSGALRRFEYDYSGQGTQVTVSS
On to B3, for which the “Displacem. (%) (maximal displacement of [125I]-CXCL12)” value in the assay with CXCR4 (membranes from HEK293T cells transiently expressing CXCR4, means ± S.E.M.) is on record as 96 ± 5%.

B4: 14G03: Nanobody against human CXCR7, Group 2 (protein)
VHH: EVQLVESGGGLVQPGGSLRISCAASGSIYLINYMGWYRQAPGKQRELVATLTSGGSTNYAGSVKGRFAISRDNAKNTVYLQMNSLKPEDTAVYYCNIGGTLYDRRRFESWGQGTQVTVSS
modifications: Nanobody, Nanobody constructs or fragments thereof
In the case of B4, in the assay with CXCR7 point mutants [1], the “epitope includes residue M33” value is recorded as “included residue M33”. Besides, the “effect of W19A mutation on binding” value in the assay with CXCR7 point mutants [2] was “did not affect”.

B5: 08A05: Nanobody against human CXCR7, Group 2 (protein)
VHH: EVQLVESGGGLVQAGDSLRLSCAASGLTFSNYDMGWFRQAPGKEREFVGASWWSGGAPYYSDSVKGRFTISRDNAKNTVYLQANSLRPEDTAVYYCAAKRLRSFASGGSYDYWGQGTQVTVSS
modifications: Nanobody, Nanobody constructs or fragments thereof
Regarding B5, in the assay with CXCR7 point mutants [1], the “epitope includes residue M33” value was “included residue M33”. The “effect of W19A mutation on binding” value with CXCR7 point mutants [2] is “did not affect”. Moreover, in the assay with CXCR7, the “competition with 14G03 binding to CXCR7” value is reported as “compete”.

B6: 238D2-20GS-238D4: biparatopic CXCR4 Nanobody, 238D2 linked to 238D4 via 20 amino acid GGGGS-repeat linker (protein)
chain: EVQLVESGGGLVQTGGSLRLSCAASGFTFSSYAMSWVRQAPGKGLEWVSGIKSSGDSTRYAGSVKGRFTISRDNAKNMLYLQMYSLKPEDTAVYYCAKSRVSRTGLYTYDNRGQGTQVTVSSGGGGSGGGGSGGGGSGGGGSEVQLMESGGGLVQAGGSLRLSCAASGRTFNNYAMGWFRRAPGKEREFVAAITRSGVRSGVSAIYGDSVKDRFTISRDNAKNTLYLQMNSLKPEDTAVYTCAASAIGSGALRRFEYDYSGQGTQVTVSS
With B6, the “inhibitory potency on CXCL12-induced inositol phosphate accumulation” value with hCXCR4/Gαqi5 (compared to monovalent counterparts and 12G5, FIG. 4) is “significantly increased inhibitory potency”. Further, the Ki in the assay with CXCR4 ([125I]-CXCL12 displacement, membranes from HEK293T cells transiently expressing CXCR4, read-out: Ki (nM) (receptor affinity)) turned out to be 0.36 nM. Besides, the “Rel. potency (potency relative to those of monovalent 238D2)” value with CXCR4 (footnote a: relative to monovalent 238D2) came out at 27. For the same molecule, the “Rel. potency (potency relative to those of monovalent 238D4)” value with CXCR4 (footnote b: relative to monovalent 238D4) is on record as 17. Besides, in the assay with CXCR4 (relative to monovalent 238D2), the “increase in affinity to CXCR4 over monovalent counterpart 238D2” value was 27 fold. In addition, the “increase in affinity to CXCR4 over monovalent counterpart 238D4” value in the assay with CXCR4 (relative to monovalent 238D4) was found to be 17 fold.

B7: 08A10: Nanobody against human CXCR7, Group 2 (protein)
VHH: EVQLVESGGGLVQAGGSLRLSCAASGSIFSIAAMGWYRQATGKQRELVATITDGGTTTYADSVKGRVTISRDRSANTVYLAMNNLKPDDTAVYYCYAYLRYTSRVPGDNYWGQGTQVTVSS
modifications: Nanobody, Nanobody constructs or fragments thereof
As to B7, in the assay with CXCR7 point mutants [1], the “epitope includes residue M33” value is listed as “included residue M33”. Moreover, in the assay with CXCR7 point mutants [2], the “effect of W19A mutation on binding” value was “did not affect”. For the same molecule, the “competition with 14G03 binding to CXCR7” value with CXCR7 is reported as “compete”.

B8: vHH26F2 (protein)
VHH: EVQLVESGGGLVQAGGSLRLSCVASGFSFDDYAIGWFRQAPGQDREPLACITSGGTRNYNPSVMARFRIDRDNSVKTVYLQINTLKPEDTAVYYCSTELDRQGGSAHECREYDTWGQGTQVTVSS
B8: the Kd worked out at 70 nM with PTHR (PTHR + CaCl2) and 360 nM in the assay with PTHR (PTHR Fos12).

B9: 01C10: Nanobody against human CXCR7, Group 1 (protein)
VHH: EVQLVESGGGLVQTGASLRLSCAASGRTFSNYAMGWFRQAPGKERERVAAITPRAFTTYYADSVKGRFTISRDNAKNTAYLQMVSLKPEDTAVYYCAAQLVGSGSNLGRQESYAYWGQGTQVTVSS
modifications: Nanobody, Nanobody constructs or fragments thereof
Turning to B9, the “effect of W19A mutation on binding” value with CXCR7 point mutants [2] is “affected”. Moreover, the “competition with 14G03 binding to CXCR7” value with CXCR7 was “does not”.

B10: vHH23A3 (protein)
VHH: EVQLVESGGGLVQAGGSLRLSCAASGLTFSNYAMGWFRQAPGKEREWVASINWSGGSTYYEDSVEGRFTISRDNAKNTVNLQMNSLKPEDTAVYYCAAKRGHYSREYDYWGQGTQVTVSS
As for B10, the Kd with PTHR (PTHR − CaCl2) worked out at 22 nM.

B11: vHH22A3 (protein)
VHH: EVQLVESGGGLVQAGGSLRLSCAASGNIFANNIMGWYRQPPGKEREFVAHVSHDGDSMYAVSVKGRFAISRKDATNLYLQMNSLKPEDTAIYFCRLLNIPTQGRMEGFWGQGTQVTVSS
Consider B11, for which the Kd with PTHR (PTHR + CaCl2) is 9 nM; with PTHR (PTHR − CaCl2), 17 nM.

B12: vHH6H4 (protein)
VHH: EVQLVESGGGLVQAGGSLRLACAASGSIFSFNAMGWYRQAPGKQRELLAVITRDGITKYADSVKGRFTISRDNAKNTMYLQMNSLKPEDTAVYYCHTGLPTGRGSHSDYWGQGTQVTVSS
For the molecule B12, on CB1R, the Kd is 36 nM.

B13: vHH26A6 (protein)
VHH: EVQLVESGGGLVQAGGSLRLSCAASRSRSSFDDMGWYRQAPGKQREFVGGITLGGSTIYADSVKGRFTISMDSARNTGYLQMNSLKPEDTAVYYCNAALDGYSGSSWGQGTQVTVSS
Turning to B13, in the assay with PTHR (PTHR − CaCl2), the Kd turned out to be 17 nM.
